Results: US20150212086A1
Where no end group is shown, it is not given here.

Molecular target: full-length MDGI (mammary-derived growth inhibitor) expressed from the pcDNA3-9E10 plasmid as a c-Myc fusion protein (mouse) (UniProt P11404)
Experiment: phage binding to U2OS cells transiently transfected with MDGI, 2 h at 4 C, bound phage titrated

## CGLSGLGVA (peptide, not shown: large carriers, also: displayed on T7 phage capsid protein) [CooP displaying phage (phage 36), peptide sequence …]
  fold increase of phage binding compared to the original library: 10 fold
